Among the data in patent publication US20240254229A1 (Molecular Partners, published 2024) are EC50, binding result and Kd values, retold here.

The target in test [1] is T1, Molm-13 N1 tumor cells (carrying CD123, CD33 and CD70) (human, UniProt P20138 18-364; P26951 19-378; P32970 1-193).
T1 construct: whole, on cells; Not a complex: three separate antigens on one cell; also called Molm-13 N1 cells
Briefly: flow cytometry on Molm-13 N1 cells, 20 uM HSA. Here is the method: The determination of binding of several multispecific proteins to tumor cells was performed by Fluorescence Activated Cell Sorting (FACS) flow cytometry. Therefore, tumor cells (Molm-13 N1), were seeded at 100′000 cells per well in a 96 well plate. DARPin® protein #56, DARPin® protein #57, DARPin® protein #58, DARPin® protein #59, DARPin® protein #60, DARPin® protein #61 and DARPin® protein #62 were titrated down starting at 100 nM in 1:5 dilution ratio. Tumor cells were resuspended with diluted DARPin® proteins and incubated 60 minutes at 4° C. The assay was performed in PBS including 2% fetal bovine serum and human serum albumin 20 uM (HSA). After washing twice with Phosphate Buffer saline (PBS), DARPin® protein specific tumor cell binding was detected by adding unlabelled primary […] (anti-rabbit 1-1-1 antibody, CePower) at 2 ug/ml. An incubation step of at least 30 minutes at 4° C. followed. Afterwards, cells were washed with PBS and a secondary anti-rabbit antibody labelled with Alexa Fluor 647 antibody (ThermoFisher) at 2 ug/ml was added. The same incubation conditions applied. Finally, the cells were washed twice and resuspended in Cytofix fixation buffer (BD Biosciences) for 15 min at room temperature (RT). Median fluorescence intensities (MFI) of Alexa Fluor 647 DARPin® labelled cells were measured by Attune NxT (Thermo Fisher) using FlowJo software for analyses and GraphPad Prism 8 for data plotting.

In test [2] the target is T2, biotinylated extracellular domain of human CD123 (SEQ ID NO: 88), Fc and Avi tagged (human, UniProt P26951 19-303, biotinylated with BirA-GST (Avi tag)).
T2 construct: also called hCD123
T2 sequence: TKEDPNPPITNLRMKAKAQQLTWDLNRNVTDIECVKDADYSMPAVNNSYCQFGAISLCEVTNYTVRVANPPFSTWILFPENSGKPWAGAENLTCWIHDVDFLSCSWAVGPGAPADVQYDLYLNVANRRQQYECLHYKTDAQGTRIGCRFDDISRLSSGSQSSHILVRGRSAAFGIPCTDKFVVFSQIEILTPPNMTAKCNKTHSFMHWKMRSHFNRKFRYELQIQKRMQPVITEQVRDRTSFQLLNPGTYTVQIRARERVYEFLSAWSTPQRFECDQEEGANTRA
Briefly: SPR (ProteOn XPR36), target on GLC chip. From the text:
(§1) For that, DARPin® protein #27, DARPin® protein #29, DARPin® protein #47 and DARPin® protein #48 and DARPin® protein #49, DARPin® protein #50, DARPin® protein #51, DARPin® protein #52, DARPin® protein #31, DARPin® protein #53, DARPin® protein #54, DARPin® protein #55, DARPin® protein #34, DARPin® protein #33, DARPin® protein #39 and DARPin® protein #36 were subcloned and expressed as described above into derivatives of the pQE30 (Qiagen) expression vector, containing an N-terminal His-tag, CD33, CD123 and/or CD70 binding ankyrin repeat domains, followed by a CD3 specific ankyrin repeat domain and for some constructs by a human serum albumin specific ankyrin repeat domain.
(§2) Briefly, biotinylated human CD70, CD123 and CD33 was diluted in PBST (PBS, pH 7.4 containing 0.005% Tween 20®) and coated on a GLC chip (BioRad) to a level of around 200, 460 and 450 resonance units (RU) respectively. HSA in NaOAc pH 5.0 was directly immobilized on the GLC chip to a level of 800 RU. Bio.CD70, bio. CD33 and bio. CD123 required to have Neutravidin coated first to a level of 6000 RU before the biotinylated targets could be applied. The interaction of the selected ankyrin repeat proteins and human CD70, CD123 and CD33 was then measured by injecting 300 μl running buffer (PBS, pH 7.4 containing 0.005% Tween 20®) containing serial dilutions of ankyrin repeat proteins covering a concentration range between 100 nM and 2.6 nM (100, 40, 16, 6.4 and 2.6 nM respectively) for multi-trace SPR measurements, with an association of 120 s and dissociation of 1200 s using a constant flow of 100 μl/min. The regeneration was performed using 30 μl of 4 mM Glycine pH 2. The signals (i.e. resonance unit (RU) values) of the interspots and a reference injection (i.e. injection of running buffer only) were subtracted from the RU traces obtained after injection of ankyrin repeat protein (double-referencing).

In test [3] the target is T3, biotinylated extracellular domain of human CD33 (SEQ ID NO: 87), Fc and Avi tagged (human, UniProt P20138 18-259, biotinylated with BirA-GST (Avi tag)).
T3 construct: also called hCD33; human target hCD33
T3 sequence (P20138 18-259 R69G): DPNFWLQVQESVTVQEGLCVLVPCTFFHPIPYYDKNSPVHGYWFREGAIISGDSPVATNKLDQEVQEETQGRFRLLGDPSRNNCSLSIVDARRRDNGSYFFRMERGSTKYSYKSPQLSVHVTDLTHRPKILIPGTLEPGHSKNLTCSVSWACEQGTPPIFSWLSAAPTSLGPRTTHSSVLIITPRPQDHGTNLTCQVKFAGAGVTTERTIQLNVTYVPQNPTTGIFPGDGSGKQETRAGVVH
Briefly: SPR (ProteOn XPR36), target on GLC chip, DARPin as analyte.
Source text: as §1, §2

Test [4] deals with T4, extracellular domain of human CD70 (SEQ ID NO: 89), hCD70-Fc-trimer, ACRO Biosystems (human, UniProt P32970 52-193, chemically biotinylated where the biotinylated form was used).
T4 construct: also called human CD70-Fc-trimer; Bio.CD70
T4 sequence: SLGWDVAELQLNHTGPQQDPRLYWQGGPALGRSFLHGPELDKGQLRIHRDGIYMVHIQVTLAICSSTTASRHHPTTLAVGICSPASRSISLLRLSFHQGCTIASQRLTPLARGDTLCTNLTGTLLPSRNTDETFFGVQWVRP
The test is described as above.
Source text: as §1, §2

Test [5] has as its target T5, human serum albumin (human, UniProt P02768 25-609).
T5 construct: also called HSA; SA
The description is as above.
Source text: as §1, §2

T5 sequence (P02768 25-609 limits assumed): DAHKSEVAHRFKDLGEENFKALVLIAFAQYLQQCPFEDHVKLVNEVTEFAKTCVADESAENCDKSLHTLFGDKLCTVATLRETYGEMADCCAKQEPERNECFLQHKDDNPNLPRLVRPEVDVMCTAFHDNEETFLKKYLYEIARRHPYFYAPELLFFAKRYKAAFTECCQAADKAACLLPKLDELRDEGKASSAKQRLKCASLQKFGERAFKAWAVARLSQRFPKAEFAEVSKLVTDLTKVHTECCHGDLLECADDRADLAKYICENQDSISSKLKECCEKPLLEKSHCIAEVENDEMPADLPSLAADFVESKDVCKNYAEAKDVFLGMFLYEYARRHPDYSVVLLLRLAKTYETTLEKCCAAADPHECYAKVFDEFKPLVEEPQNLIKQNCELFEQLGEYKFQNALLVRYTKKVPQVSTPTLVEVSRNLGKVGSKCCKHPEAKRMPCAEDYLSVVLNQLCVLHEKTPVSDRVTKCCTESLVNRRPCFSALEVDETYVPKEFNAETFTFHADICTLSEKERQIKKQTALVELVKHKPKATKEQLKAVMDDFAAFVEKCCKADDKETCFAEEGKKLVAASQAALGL
T1 sequence (P20138 18-364, one chain of several): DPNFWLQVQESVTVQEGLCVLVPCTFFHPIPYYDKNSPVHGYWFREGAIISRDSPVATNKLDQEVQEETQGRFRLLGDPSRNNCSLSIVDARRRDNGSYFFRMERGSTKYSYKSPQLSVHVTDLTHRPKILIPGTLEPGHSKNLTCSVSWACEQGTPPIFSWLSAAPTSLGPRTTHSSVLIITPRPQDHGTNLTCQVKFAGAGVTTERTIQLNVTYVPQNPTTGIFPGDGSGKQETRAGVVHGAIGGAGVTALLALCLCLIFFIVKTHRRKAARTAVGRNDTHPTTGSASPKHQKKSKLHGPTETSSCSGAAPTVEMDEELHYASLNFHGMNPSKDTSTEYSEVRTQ

B1: DARPin® protein #62 (designed binder)
chain: DLGKKLLEAARAGQDDEVRELLKAGADVNAKDYFSHTPLHLAARNGHLKIVEVLLKAGADVNAKDFAGKTPLHLAAADGHLEIVEVLLKAGADVNAQDIFGKTPADIAADAGHEDIAEVLQKAAGSPTPTPTTPTPTPTTPTPTPTGSDLGKKLLEAARAGQDDEVRELLKAGADVNAKDYFSHTPLHLAARNGHLKIVEVLLKAGADVNAKDFAGKTPLHLAAADGHLEIVEVLLKAGADVNAQDIFGKTPADIAADAGHEDIAEVLQKAAGSPTPTPTTPTPTPTTPTPTPTGSDLGIKLLTAAYDGQLDEVRILLKAGADVNAKDLRGQTPLHYAAGLGHLEIVEVLLKAGADVNAKDLHGWTPLHLAAWSGHLEIVEVLLKAGADVNAQDVEGVTPADLAAVQGHQDIAEVLQKAAGSPTPTPTTPTPTPTTPTPTPTGSDLGVKLLLAAERGQLDEVRILLKAGADVNAKDIAEGYTPLHIAAYQGHLEIVEVLLKAGADVNAKDRYGKTPLHLAAIGGHLEIVEVLLKAGADVNAQDNKGSTPADLAADYGHQDIAEVLQKAAGSPTPTPTTPTPTPTTPTPTPTGSDLGKKLLEAALEGQLDEVRELLKAGADVNAKDQEGYTPLHLAAALGHLEIVEVLLKAGADVNAKDQIGRTPLHLAAYKGHLEIVEVLLKAGADVNAQDIIGQTPADLAAQRGHQDIAEVLQKAAGSPTPTPTTPTPTPTTPTPTPTGSDLGQKLLEAAWAGQDDEVRELLKAGADVNAKNSRGWTPLHTAAQTGHLEIFEVLLKAGADVNAKNDKRVTPLHLAAALGHLEIVEVLLKAGADVNARDSWGTTPADLAAKYGHQDIAEVLQKAA
notes: HSA-HSA-CD70-CD33-CD123-CD3
With B1, the EC50 in test [1] was 0.36 nM.

B2: DARPin® protein #50 (designed binder)
chain: MRGSHHHHHHDLGKKLLEAARAGQDDEVRELLKAGADVNAKDYFSHTPLHLAARNGHLKIVEVLLKAGADVNAKDFAGKTPLHLAAADGHLEIVEVLLKAGADVNAQDIFGKTPADIAADAGHEDIAEVLQKAAGSPTPTPTTPTPTPTTPTPTPTGSDLGYKLLQAAYDGQLDEVRILLKAGADVNAKDSRGQTPLHYAASIGHLEIVEVLLKAGADVNAKDDHGWTPLHLAAWSGHLEIVEVLLKAGADVNAQDQEGTTPADLAAVQGHQDIAEVLQKAAGSPTPTPTTPTPTPTTPTPTPTGSDLGVKLLLAASRGQLDEVRILLKAGADVNAKDIDEGYTPLHIAAYYGHLEIVEVLLKAGADVNAKDRYGKTPLHLAAISGHLEIVEVLLKAGADVNAQDDKGDTPADLAADYGHQDIAEVLQKAAGSPTPTPTTPTPTPTTPTPTPTGSDLGQKLLEAAWAGQDDEVRELLKAGADVNAKNSRGWTPLHTAAQTGHLEIFEVLLKAGADVNAKDDKGVTPLHLAAALGHLEIVEVLLKAGADVNAQDSWGTTPADLAAKYGHEDIAEVLQKAA
notes: HSA-CD70-CD33-CD3
As for B2, the binding result in test [2] is “no binding (tested: 100 nM (highest concentration))”. Further, the dissociation constant Kd in test [3] is 7.5 nM; in test [4], 0.81 nM; in test [5], 24 nM.

B3: DARPin® protein #51 (designed binder)
chain: MRGSHHHHHHDLGKKLLEAARAGQDDEVRELLKAGADVNAKDYFSHTPLHLAARNGHLKIVEVLLKAGADVNAKDFAGKTPLHLAAADGHLEIVEVLLKAGADVNAQDIFGKTPADIAADAGHEDIAEVLQKAAGSPTPTPTTPTPTPTTPTPTPTGSDLGKKLLEAARAGQDDEVRELLKAGADVNAKDYFSHTPLHLAARNGHLKIVEVLLKAGADVNAKDFAGKTPLHLAAADGHLEIVEVLLKAGADVNAQDIFGKTPADIAADAGHEDIAEVLQKAAGSPTPTPTTPTPTPTTPTPTPTGSDLGYKLLQAAYDGQLDEVRILLKAGADVNAKDSRGQTPLHYAASIGHLEIVEVLLKAGADVNAKDDHGWTPLHLAAWSGHLEIVEVLLKAGADVNAQDQEGTTPADLAAVQGHQDIAEVLQKAAGSPTPTPTTPTPTPTTPTPTPTGSDLGVKLLLAASRGQLDEVRILLKAGADVNAKDIDEGYTPLHIAAYYGHLEIVEVLLKAGADVNAKDRYGKTPLHLAAISGHLEIVEVLLKAGADVNAQDDKGDTPADLAADYGHQDIAEVLQKAAGSPTPTPTTPTPTPTTPTPTPTGSDLGQKLLEAAWAGQDDEVRELLKAGADVNAKNSRGWTPLHTAAQTGHLEIFEVLLKAGADVNAKDDKGVTPLHLAAALGHLEIVEVLLKAGADVNAQDSWGTTPADLAAKYGHEDIAEVLQKAA
notes: HSA-HSA-CD70-CD33-CD3
Consider B3, for which the binding result in test [2] was “no binding (tested: 100 nM (highest concentration))”. Besides, the Kd in test [3] was determined as 5.5 nM; in test [4] it was 0.56 nM; in test [5], 1.3 nM.

B4: DARPin® protein #61 (designed binder)
chain: DLGKKLLEAARAGQDDEVRELLKAGADVNAKDYFSHTPLHLAARNGHLKIVEVLLKAGADVNAKDFAGKTPLHLAAADGHLEIVEVLLKAGADVNAQDIFGKTPADIAADAGHEDIAEVLQKAAGSPTPTPTTPTPTPTTPTPTPTGSDLGKKLLEAARAGQDDEVRELLKAGADVNAKDYFSHTPLHLAARNGHLKIVEVLLKAGADVNAKDFAGKTPLHLAAADGHLEIVEVLLKAGADVNAQDIFGKTPADIAADAGHEDIAEVLQKAAGSPTPTPTTPTPTPTTPTPTPTGSDLGKKLLQAARAGQLDEVRELLKAGADVNAKDQQGLTPLHIAANLGHLEIVEVLLKAGADVNAKDLFGLTPLHLAAFEGHLEIVEVLLKAGADVNAKDQHGATPLHLAAWVGHLEIVEVLLKAGADVNAQDKSGKTPADLAARAGHQDIAEVLQKAAGSPTPTPTTPTPTPTTPTPTPTGSDLGKKLLQAALEGQLDEVRELLKAGADVNAKDIEGYTPLHLAAALGHLEIVEVLLKAGADVNAKDQIGRTPLHLAAYKGHLEIVEVLLKAGADVNAQDIIGQTPADLAAQRGHQDIAEVLQKAAGSPTPTPTTPTPTPTTPTPTPTGSDLGKKLLLAAERGQLDEVRILLKAGADVNAKDRAEGYTPLHIAAYQGHLEIVEVLLKAGADVNAKDRYGKTPLHLAAISGHLEIVEVLLKAGADVNAQDNKGSTPADLAADYGHQDIAEVLQKAAGSPTGSDLGQKLLEAAWAGQDDEVRELLKAGADVNAKNSRGWTPLHTAAQTGHLEIFEVLLKAGADVNAKNDKRVTPLHLAAALGHLEIVEVLLKAGADVNARDSWGTTPADLAAKYGHQDIAEVLQKAA
notes: HSA-HSA-CD70-CD123-CD33-CD3
Take B4: the EC50 in test [1] was determined as 0.13 nM.
